Tested on: IL-18
Experiment: IL-18 levels in small intestine and serum after oral rhLF or bLF (cytokine ELISA)
Format: in vivo, mice
Protocol: Recombinant human lactoferrin and bovine lactoferrin were orally administered to mice, and the production of IL-18 in the small intestine was measured.
Mice were treated for three days daily with 65 mg/kg/day of rhLF, 300 mg/kg/day of rhLF or 300 mg/kg/day of bLF. For a control, mice were only administered the pharmaceutical carrier. Twenty-four hours following administration of the LF or control for 3 days, animals were weighed and blood and serum were collected. Serum was used for cytokine ELISA assays.
Also, at these time points, animals were sacrificed and the small intestinal tissue was removed for further analysis. Small intestinal epithelium was homogenized using a lysis buffer consisting of PBS, 1% Nonidet P-40, 0.5% sodium deoxycholate, and 0.1% sodium dodecyl sulphate containing 10 μg/ml PhenylMetheylsulfonyl fluoride. Homogenate was centrifuged at 15,000 rpm for 10 minutes and the supernatant stored at −80 C. till it was tested for IL-18 levels.

[1] = oral 300 mg/kg/day for three days, 24 h after last dose
[2] = oral, rhLF at both doses, bLF 300 mg/kg/day

B1: bovine lactoferrin (protein, UniProt P24627 20-708, looked up)
Lactotransferrin: APRKNVRWCTISQPEWFKCRRWQWRMKKLGAPSITCVRRAFALECIRAIAEKKADAVTLDGGMVFEAGRDPYKLRPVAAEIYGTKESPQTHYYAVAVVKKGSNFQLDQLQGRKSCHTGLGRSAGWIIPMGILRPYLSWTESLEPLQGAVAKFFSASCVPCIDRQAYPNLCQLCKGEGENQCACSSREPYFGYSGAFKCLQDGAGDVAFVKETTVFENLPEKADRDQYELLCLNNSRAPVDAFKECHLAQVPSHAVVARSVDGKEDLIWKLLSKAQEKFGKNKSRSFQLFGSPPGQRDLLFKDSALGFLRIPSKVDSALYLGSRYLTTLKNLRETAEEVKARYTRVVWCAVGPEEQKKCQQWSQQSGQNVTCATASTTDDCIVLVLKGEADALNLDGGYIYTAGKCGLVPVLAENRKSSKHSSLDCVLRPTEGYLAVAVVKKANEGLTWNSLKDKKSCHTAVDRTAGWNIPMGLIVNQTGSCAFDEFFSQSCAPGADPKSRLCALCAGDDQGLDKCVPNSKEKYYGYTGAFRCLAEDVGDVAFVKNDTVWENTNGESTADWAKNLNREDFRLLCLDGTRKPVTEAQSCHLAVAPNHAVVSRSDRAAHVKQVLLHQQALFGKNGKNCPDKFCLFKSETKNLLFNDNTECLAKLGGRPTYEEYLGTEYVTAIANLKKCSTSPLLEACAFLTR
IL-18 Intestinal Extract % Increase Over Control (oral 300 mg/kg): 373% | IL-18 Serum % Increase Over Control (oral 300 mg/kg): −5% | IL-18 Intestinal Extract [1]: 4,515 pg | IL-18 Serum [1]: 134 pg | effect on amount of IL-18 in the intestinal extract [2]: lesser increase | effect on amount of IL-18 in the serum [2]: did not increase

Reference: patent publication US7901879B2, “Lactoferrin in the treatment of malignant neoplasms and other hyperproliferative diseases” (Agennix Incorporated, priority 2002, dated 2011)
